# B1: BMP-15: Recombinant ovine BMP-15 produced in-house in transfected 293H cells, partially purified by hydrophobic interaction chromatography; dosed as % v/v (protein, UniProt Q9MZE2 269-393, looked up)
# Bone morphogenetic protein 15: QAGSIASEVPGPSREHDGPESNQCSLHPFQVSFQQLGWDHWIIAPHLYTPNYCKGVCPRVLHYGLNSPNHAIIQNLVSELVDQNVPQPSCVPYKYVPISILLIEANGSILYKEYEGMIAQSCTCR
# B2: GDF-9: Recombinant mouse GDF-9 produced in-house in transfected 293H cells, partially purified by HIC (protein, UniProt Q07105 307-441, looked up)
# Growth/differentiation factor …: GQKAIRSEAKGPLLTASFNLSEYFKQFLFPQNECELHDFRLSFSQLKWDNWIVAPHRYNPRYCKGDCPRAVRHRYGSPVHTMVQNIIYEKLDPSVPRPSCVPGKYSPLSVLTIEPDGSIAYKEYEDMIATRCTCR
# Assays:
# cumulus-oocyte complexes = experiment: Study IV: oocyte developmental competence after IVM, IVF and embryo culture; type: cell-based, Bovine; settings: for blastocyst yields with exogenous factor / effect on cleavage rate: Experiments 3 & 4; for blastocyst yields with exogenous factor: 175 ng/ml GDF9 or 10% v/v BMP15; for effect on cleavage rate: 4 μM SB-431542, 175 ng/ml GDF9, 10% v/v BMP15, 10% v/v 293H
# Protocol: Unless otherwise specified, all chemicals and reagents were purchased from Sigma (St Louis, Mo.). Bovine ovaries were collected from local abattoirs and transported to the laboratory in warm saline (30-35° C.). COCs were aspirated from antral follicles (3 to 5 mm diameter) using an 18-gauge needle and a 10-ml syringe containing ˜2 ml aspiration medium (Hepes-buffered. Tissue Cultured Medium-199; TCM-199. ICN Biochemicals, Irvine, Calif., USA) supplemented with 50 μg/ml kanamycin, 0.5 mM sodium pyruvate, 50 μg/ml heparin and 4 mg/ml fatty acid-free bovine serum albumin (FAF-BSA; ICPbio Ltd, Aukland, NZ). Intact COCs with compact cumulus vestments>˜5 cell layers and evenly pigmented cytoplasm were selected under a dissecting microscope and washed twice in Hepes-buffered TCM-199 and once in Hepes-buffered TCM-199 supplemented with 10% fetal calf serim (FCS) (Invitrogen, Carlsbad, Calif.). The basic medium for oocyte maturation was Bovine VitroMat (Cook Australia, Eight Mile Plains, Qld, Australia), a medium based on the ionic composition of bovine follicular fluid. […] Complexes were cultured in pre-equilibrated 300 ? l drops overlaid with mineral oil and incubated at 39° C. with 5% CO2 in humidified air for 24 hour. […]
# Recombinant mouse GDF9 and recombinant ovine BMP15 were produced and partially purified in-house as previously described using transfected 293 human embryonic kidney cell lines (293H) originally donated by O. Ritvos (University of Helsinki). Control conditioned medium (hereafter designated ‘293H’) was produced from untransfected 293H cells and subjected to the same chromatography procedures as GDF9 and BMP15 conditioned media.
# Consequently, SB-431542 potently antagonizes the ALK 4/5 ligands; TGF-β1, the activins and GDF9, without affecting BMP signalling (Inman et al., 2002; Gilchrist et al., 2006). […] Follistatin-288 was generously donated by S. Shimasaki (University of California San Diego, USA) and we have previously shown that this binding protein antagonizes the bioactivities of native OSFs and recombinant BMP15 in CCs.
# In vitro production of embryos was undertaken using defined, serum-free media (Bovine Vitro series of media, Cook Australia). Frozen semen from a single bull of proven fertility was used in all experiments. Briefly, thawed semen was layered over a discontinuous (45%: 90%) Percoll gradient (Amersham Bioscience) and centrifuged (RT) for 20-25 mins at 700 g. The supernatant was removed and the sperm pellet was washed with 500 μl Bovine VitroWash (Cook Australia) and centrifuged for a further 5 minutes at 200 g. Spermatozoa were resuspended with IVF medium (Bovine VitroFert, Cook Australia), then added to the fertilization media drops (Bovine VitroFert, supplemented with 0.01 mM heparin, 0.2 mM penicillamine and 0.1 mM hypotaurine) at a final concentration of 1×106 spermatozoa/ml. COCs were inseminated at a density of 10 μl of IVF medium per COC for 24 h, at 39° C. in 6% CO2 in humidified air.
# CCs were removed by gentle pipetting 23-24 h post insemination and five presumptive zygotes were transferred into 20 μl drops of pre-equilibrated Cook Bovine VitroCleave medium (Cook Australia) and cultured under mineral oil at 38.5° C. in 7% O2, 6% CO2, balance N2, for five days (day 1 to day 5).
# On Day 5, embryos were transferred in groups of 5-6 to 20 μl drops of pre-equilibrated Bovine VitroBlast (Cook Australia) at 38.5° C. overlaid with mineral oil and cultured to Day 8. Embryos were assessed for quality at Day 8 according to the definitions presented in the Manual of the International Embryo Transfer Society (Stringfellow, 1998) and were performed independently and blinded by an experienced bovine embryologist.
# Cell counts were performed using a modified version of the technique described by (Fouladi-Nashta et al., 2005). […]
# [1] = test system: Smad 3-responsive CAGA-luciferase reporter; experiment: Smad 3-responsive CAGA-luciferase reporter in mural granulosa cells from large antral follicles; type: cell-based, marmoset monkey, Callithrix jacchus; settings: 48 h; 0.5 ng/ml TGFβ1, 88-265 ng/ml GDF9, 50 ng/ml BMP7 or 60 mouse oocytes
# Protocol: FIGS. 18A and 18B show the activation of the TGF-β signalling pathway by GDF9 and oocytes. MGC from large follicles were transiently transfected with either a Smad 3-responsive CAGA-luciferase reporter construct (A) or a Smad 1-responsive BRE-luciferase reporter construct (B). Cells were subsequently left untreated, treated with 0.5 ng/ml TGFβ1, 88-265 ng/ml GDF9, 50 ng/ml BMP7 or co-cultured with 60 mouse oocytes. Cells were cultured for 48 h after which time luciferase activity was measured from cell extracts. Bars represent means+/− SEM from 3 replicate experiments expressed as a fold change relative to control.
# Luciferase reporter constructs responsive to specific phosphorylated Smads were used to detect the activation of mural GC Smad proteins by recombinant GDF9 Mural GCs were collected and processed as described above, except cells were given a final wash in DMEM(MP Biomedicals, Seven Hills, Australia)+2% FCS (Trace Biosciences, Castle Hill, Australia). Following the final wash, cells were transferred to individual wells of a 96-well plate (Falcon) and cultured at 1.6×10^5 cells/ml. After 4 hours of culture, cells were transiently transfected with 50 ng of luciferase reporter construct DNA using Fugene 6 (Roche Diagnostics, Castle Hill, Australia). 18 hours after transfection, medium was aspirated from cells and replaced with DMEM supplemented with 0.1% FCS. Various ligands were added to cells at this point (see below) and the culture period extended for a further 48 hours. Experiments were terminated by removing media from wells and freezing plates at −20° C. […]
# Seven adult female marmosets were primed with […] for 6 days, whole ovaries were removed on day 7, follicles manually excised, and GC were then collected from 3 size classes: periantral (PA; 0.42-0.66 mm), small antral (SA; 0.66-1.5 mm) and large antral (LA; >1.5 mm). […] In order to determine the effects of GDF9 on marmoset GC proliferation, we employed a GC bioassay whereby after 24 h ^3H-thymidine incorporation is assessed as an indicator of DNA synthesis and cellular proliferation. […]
molecule,measurement,setting,value
B1,enhancement of development to the blastocyst stage compared to 293H-treated COCs,cumulus-oocyte complexes; 10% v/v BMP15 during IVM,30%
same,enhancement of development to the blastocyst stage compared to control COCs,cumulus-oocyte complexes; 10% v/v BMP15 during IVM,16%
same,blastocyst yields with exogenous factor,cumulus-oocyte complexes,increased blastocyst yields
same,effect on cleavage rate,cumulus-oocyte complexes,did not significantly alter cleavage rates
B2,blastocyst yield,"cumulus-oocyte complexes; Experiment 2, 175 ng/ml GDF9, with or without 10% v/v BMP15","increased (P<0.05) blastocyst yield compared to 293H-treated COCs, but not compared to COCs cultured alone"
same,blastocyst yields with exogenous factor,cumulus-oocyte complexes,increased blastocyst yields
same,effect on cleavage rate,cumulus-oocyte complexes,did not significantly alter cleavage rates
same,CAGA-luciferase activity above control levels,[1],5 fold

# Reference: patent US8530235B2, “Medium that supports culture of an oocyte and modulation of granulosa cell apoptosis” (Adelaide Research & Innovation Pty Ltd., priority 2005, dated 2013)
